# Test results: patent US20210388087A1 (Chugai, published 2021)
# T1: Human CD3eg linker (human)
# T1 construct: Single chain: epsilon and gamma subunits of human CD3 joined by a 29-mer linker, Flag-tag at the C-terminus; also called recombinant human CD3
# T1 chain: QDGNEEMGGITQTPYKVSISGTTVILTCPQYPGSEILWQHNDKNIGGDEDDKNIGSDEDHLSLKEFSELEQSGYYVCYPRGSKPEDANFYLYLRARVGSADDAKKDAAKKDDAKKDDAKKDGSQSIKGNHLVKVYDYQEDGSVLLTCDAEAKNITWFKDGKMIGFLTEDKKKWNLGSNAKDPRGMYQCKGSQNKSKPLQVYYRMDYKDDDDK
# Target: T1, Human CD3eg linker
# Assay: Biacore SPR, vs template H183/L072
row,fold change of affinity [fold],Binder
1,1,"H183/L072 VH A56Q (antibody, name in Kabat numbering, V domains shown) VH: QVQLVESGGGLVQPGRSLRLSCAASGFTFSNAWMHWVRQAPGKGLEWVAQIKDKGNAYQAYYAPSVKGRFTISRDDSKNSIYLQMNSLKTEDTAVYYCHYVHYASASTVLPAFGVDAWGQGTTVTVSS VL: DIVMTQSPLSLPVTPGEPASISCQASQELVHMNRNTYLHWYQQKPGQAPRLLIYKVSNRFPGVPDRFSGSGSGTDFTLKISRVEAEDVGVYYCAQGTSVPFTFGQGTKLEIK"
2,1,"H183/L072 VH A57D (antibody, name in Kabat numbering, V domains shown) VH: QVQLVESGGGLVQPGRSLRLSCAASGFTFSNAWMHWVRQAPGKGLEWVAQIKDKGNAYADYYAPSVKGRFTISRDDSKNSIYLQMNSLKTEDTAVYYCHYVHYASASTVLPAFGVDAWGQGTTVTVSS VL: DIVMTQSPLSLPVTPGEPASISCQASQELVHMNRNTYLHWYQQKPGQAPRLLIYKVSNRFPGVPDRFSGSGSGTDFTLKISRVEAEDVGVYYCAQGTSVPFTFGQGTKLEIK"
3,0.9,"H183/L072 VH A56S (antibody, name in Kabat numbering, V domains shown) VH: QVQLVESGGGLVQPGRSLRLSCAASGFTFSNAWMHWVRQAPGKGLEWVAQIKDKGNAYSAYYAPSVKGRFTISRDDSKNSIYLQMNSLKTEDTAVYYCHYVHYASASTVLPAFGVDAWGQGTTVTVSS VL: DIVMTQSPLSLPVTPGEPASISCQASQELVHMNRNTYLHWYQQKPGQAPRLLIYKVSNRFPGVPDRFSGSGSGTDFTLKISRVEAEDVGVYYCAQGTSVPFTFGQGTKLEIK"
4,0.5,"H183/L072 VH A57L (antibody, name in Kabat numbering, V domains shown) VH: QVQLVESGGGLVQPGRSLRLSCAASGFTFSNAWMHWVRQAPGKGLEWVAQIKDKGNAYALYYAPSVKGRFTISRDDSKNSIYLQMNSLKTEDTAVYYCHYVHYASASTVLPAFGVDAWGQGTTVTVSS VL: DIVMTQSPLSLPVTPGEPASISCQASQELVHMNRNTYLHWYQQKPGQAPRLLIYKVSNRFPGVPDRFSGSGSGTDFTLKISRVEAEDVGVYYCAQGTSVPFTFGQGTKLEIK"
5,1.3,"H183/L072 VH A57R (antibody, name in Kabat numbering, V domains shown) VH: QVQLVESGGGLVQPGRSLRLSCAASGFTFSNAWMHWVRQAPGKGLEWVAQIKDKGNAYARYYAPSVKGRFTISRDDSKNSIYLQMNSLKTEDTAVYYCHYVHYASASTVLPAFGVDAWGQGTTVTVSS VL: DIVMTQSPLSLPVTPGEPASISCQASQELVHMNRNTYLHWYQQKPGQAPRLLIYKVSNRFPGVPDRFSGSGSGTDFTLKISRVEAEDVGVYYCAQGTSVPFTFGQGTKLEIK"
6,0.4,"H183/L072 VH A57F (antibody, name in Kabat numbering, V domains shown) VH: QVQLVESGGGLVQPGRSLRLSCAASGFTFSNAWMHWVRQAPGKGLEWVAQIKDKGNAYAFYYAPSVKGRFTISRDDSKNSIYLQMNSLKTEDTAVYYCHYVHYASASTVLPAFGVDAWGQGTTVTVSS VL: DIVMTQSPLSLPVTPGEPASISCQASQELVHMNRNTYLHWYQQKPGQAPRLLIYKVSNRFPGVPDRFSGSGSGTDFTLKISRVEAEDVGVYYCAQGTSVPFTFGQGTKLEIK"
7,1.3,"H183/L072 VH A56R (antibody, name in Kabat numbering, V domains shown) VH: QVQLVESGGGLVQPGRSLRLSCAASGFTFSNAWMHWVRQAPGKGLEWVAQIKDKGNAYRAYYAPSVKGRFTISRDDSKNSIYLQMNSLKTEDTAVYYCHYVHYASASTVLPAFGVDAWGQGTTVTVSS VL: DIVMTQSPLSLPVTPGEPASISCQASQELVHMNRNTYLHWYQQKPGQAPRLLIYKVSNRFPGVPDRFSGSGSGTDFTLKISRVEAEDVGVYYCAQGTSVPFTFGQGTKLEIK"
8,0.7,"H183/L072 VH A56V (antibody, name in Kabat numbering, V domains shown) VH: QVQLVESGGGLVQPGRSLRLSCAASGFTFSNAWMHWVRQAPGKGLEWVAQIKDKGNAYVAYYAPSVKGRFTISRDDSKNSIYLQMNSLKTEDTAVYYCHYVHYASASTVLPAFGVDAWGQGTTVTVSS VL: DIVMTQSPLSLPVTPGEPASISCQASQELVHMNRNTYLHWYQQKPGQAPRLLIYKVSNRFPGVPDRFSGSGSGTDFTLKISRVEAEDVGVYYCAQGTSVPFTFGQGTKLEIK"
9,0.7,"H183/L072 VH A56T (antibody, name in Kabat numbering, V domains shown) VH: QVQLVESGGGLVQPGRSLRLSCAASGFTFSNAWMHWVRQAPGKGLEWVAQIKDKGNAYTAYYAPSVKGRFTISRDDSKNSIYLQMNSLKTEDTAVYYCHYVHYASASTVLPAFGVDAWGQGTTVTVSS VL: DIVMTQSPLSLPVTPGEPASISCQASQELVHMNRNTYLHWYQQKPGQAPRLLIYKVSNRFPGVPDRFSGSGSGTDFTLKISRVEAEDVGVYYCAQGTSVPFTFGQGTKLEIK"
10,0.7,"H183/L072 VH A56Y (antibody, name in Kabat numbering, V domains shown) VH: QVQLVESGGGLVQPGRSLRLSCAASGFTFSNAWMHWVRQAPGKGLEWVAQIKDKGNAYYAYYAPSVKGRFTISRDDSKNSIYLQMNSLKTEDTAVYYCHYVHYASASTVLPAFGVDAWGQGTTVTVSS VL: DIVMTQSPLSLPVTPGEPASISCQASQELVHMNRNTYLHWYQQKPGQAPRLLIYKVSNRFPGVPDRFSGSGSGTDFTLKISRVEAEDVGVYYCAQGTSVPFTFGQGTKLEIK"
11,0.8,"H183/L072 VH A56W (antibody, name in Kabat numbering, V domains shown) VH: QVQLVESGGGLVQPGRSLRLSCAASGFTFSNAWMHWVRQAPGKGLEWVAQIKDKGNAYWAYYAPSVKGRFTISRDDSKNSIYLQMNSLKTEDTAVYYCHYVHYASASTVLPAFGVDAWGQGTTVTVSS VL: DIVMTQSPLSLPVTPGEPASISCQASQELVHMNRNTYLHWYQQKPGQAPRLLIYKVSNRFPGVPDRFSGSGSGTDFTLKISRVEAEDVGVYYCAQGTSVPFTFGQGTKLEIK"
12,0.9,"H183/L072 VH A57P (antibody, name in Kabat numbering, V domains shown) VH: QVQLVESGGGLVQPGRSLRLSCAASGFTFSNAWMHWVRQAPGKGLEWVAQIKDKGNAYAPYYAPSVKGRFTISRDDSKNSIYLQMNSLKTEDTAVYYCHYVHYASASTVLPAFGVDAWGQGTTVTVSS VL: DIVMTQSPLSLPVTPGEPASISCQASQELVHMNRNTYLHWYQQKPGQAPRLLIYKVSNRFPGVPDRFSGSGSGTDFTLKISRVEAEDVGVYYCAQGTSVPFTFGQGTKLEIK"
13,1.5,"H183/L072 VH A57K (antibody, name in Kabat numbering, V domains shown) VH: QVQLVESGGGLVQPGRSLRLSCAASGFTFSNAWMHWVRQAPGKGLEWVAQIKDKGNAYAKYYAPSVKGRFTISRDDSKNSIYLQMNSLKTEDTAVYYCHYVHYASASTVLPAFGVDAWGQGTTVTVSS VL: DIVMTQSPLSLPVTPGEPASISCQASQELVHMNRNTYLHWYQQKPGQAPRLLIYKVSNRFPGVPDRFSGSGSGTDFTLKISRVEAEDVGVYYCAQGTSVPFTFGQGTKLEIK"
14,0.7,"H183/L072 VH A57N (antibody, name in Kabat numbering, V domains shown) VH: QVQLVESGGGLVQPGRSLRLSCAASGFTFSNAWMHWVRQAPGKGLEWVAQIKDKGNAYANYYAPSVKGRFTISRDDSKNSIYLQMNSLKTEDTAVYYCHYVHYASASTVLPAFGVDAWGQGTTVTVSS VL: DIVMTQSPLSLPVTPGEPASISCQASQELVHMNRNTYLHWYQQKPGQAPRLLIYKVSNRFPGVPDRFSGSGSGTDFTLKISRVEAEDVGVYYCAQGTSVPFTFGQGTKLEIK"
15,0.6,"H183/L072 VH A57I (antibody, name in Kabat numbering, V domains shown) VH: QVQLVESGGGLVQPGRSLRLSCAASGFTFSNAWMHWVRQAPGKGLEWVAQIKDKGNAYAIYYAPSVKGRFTISRDDSKNSIYLQMNSLKTEDTAVYYCHYVHYASASTVLPAFGVDAWGQGTTVTVSS VL: DIVMTQSPLSLPVTPGEPASISCQASQELVHMNRNTYLHWYQQKPGQAPRLLIYKVSNRFPGVPDRFSGSGSGTDFTLKISRVEAEDVGVYYCAQGTSVPFTFGQGTKLEIK"
16,0.9,"H183/L072 VH A57H (antibody, name in Kabat numbering, V domains shown) VH: QVQLVESGGGLVQPGRSLRLSCAASGFTFSNAWMHWVRQAPGKGLEWVAQIKDKGNAYAHYYAPSVKGRFTISRDDSKNSIYLQMNSLKTEDTAVYYCHYVHYASASTVLPAFGVDAWGQGTTVTVSS VL: DIVMTQSPLSLPVTPGEPASISCQASQELVHMNRNTYLHWYQQKPGQAPRLLIYKVSNRFPGVPDRFSGSGSGTDFTLKISRVEAEDVGVYYCAQGTSVPFTFGQGTKLEIK"
17,0.9,"H183/L072 VH A57M (antibody, name in Kabat numbering, V domains shown) VH: QVQLVESGGGLVQPGRSLRLSCAASGFTFSNAWMHWVRQAPGKGLEWVAQIKDKGNAYAMYYAPSVKGRFTISRDDSKNSIYLQMNSLKTEDTAVYYCHYVHYASASTVLPAFGVDAWGQGTTVTVSS VL: DIVMTQSPLSLPVTPGEPASISCQASQELVHMNRNTYLHWYQQKPGQAPRLLIYKVSNRFPGVPDRFSGSGSGTDFTLKISRVEAEDVGVYYCAQGTSVPFTFGQGTKLEIK"
18,0.7,"H183/L072 VH A57G (antibody, name in Kabat numbering, V domains shown) VH: QVQLVESGGGLVQPGRSLRLSCAASGFTFSNAWMHWVRQAPGKGLEWVAQIKDKGNAYAGYYAPSVKGRFTISRDDSKNSIYLQMNSLKTEDTAVYYCHYVHYASASTVLPAFGVDAWGQGTTVTVSS VL: DIVMTQSPLSLPVTPGEPASISCQASQELVHMNRNTYLHWYQQKPGQAPRLLIYKVSNRFPGVPDRFSGSGSGTDFTLKISRVEAEDVGVYYCAQGTSVPFTFGQGTKLEIK"
19,1,"H183/L072 VH A57E (antibody, name in Kabat numbering, V domains shown) VH: QVQLVESGGGLVQPGRSLRLSCAASGFTFSNAWMHWVRQAPGKGLEWVAQIKDKGNAYAEYYAPSVKGRFTISRDDSKNSIYLQMNSLKTEDTAVYYCHYVHYASASTVLPAFGVDAWGQGTTVTVSS VL: DIVMTQSPLSLPVTPGEPASISCQASQELVHMNRNTYLHWYQQKPGQAPRLLIYKVSNRFPGVPDRFSGSGSGTDFTLKISRVEAEDVGVYYCAQGTSVPFTFGQGTKLEIK"
20,1.1,"H183/L072 VH A57Q (antibody, name in Kabat numbering, V domains shown) VH: QVQLVESGGGLVQPGRSLRLSCAASGFTFSNAWMHWVRQAPGKGLEWVAQIKDKGNAYAQYYAPSVKGRFTISRDDSKNSIYLQMNSLKTEDTAVYYCHYVHYASASTVLPAFGVDAWGQGTTVTVSS VL: DIVMTQSPLSLPVTPGEPASISCQASQELVHMNRNTYLHWYQQKPGQAPRLLIYKVSNRFPGVPDRFSGSGSGTDFTLKISRVEAEDVGVYYCAQGTSVPFTFGQGTKLEIK"
